Changes are numbered by the printed parent chain.
B1: F6-63 (antibody, V domains shown)
VH: QVQVVESGGGVVEPGGSLSLSCAASGFSFKMHAMHWVRQAPGKGLEWVAFIPYDGSSQYYADSVKGRFTIYRDNFKNTLYLQMNSLRVEDTSLYYCARGGEEGAWSWIGYNSYMDVWGRGTAVTVSS
VL: QSALTQPASVSGSPGQSITISCSGTSSDVGGYDYVCWYQKHPGESPRLIIYDVSRRPSGVSNRFSGSKSGNTASLTISGLQAEDEADYSCSSYTSSNTLIFGGGTKLTVL
B2: F6-65 (antibody, V domains shown)
VH: QVQLVESGGGLVQPGDSLRLSCAASGFTFKSYGLHWVRQAPGKGLEWVAGLSYDGFSGYYADSVKGRFTVSRDNSKNTLYLHINSLRSEDTSIYYCARGGDGEIFSWIGYFYYMDVWGKGTTVTVFS
VL: QSALTQPASVSGSPGQSITISCSGTTNDVGGYDYVSWYQHHPGKAPKLLIYDVSQRPSGVSSRFSGSKSGNTASLTISGLQTDDEAHYYCSSYTITNTLKFGGGTTLTVL
B3: F6-38 (antibody, V domains shown)
VH: QVQLEESGGGVVQPGRSLTLSCAASGFTLKNYAIHWVRQAPGKGLEWVAVTAYDGFTSYYADSVKSRITISRDNSKNTAYLHLNNVRDDDAAFYYCARGGEGAFSWLGYLQYMDVWGRGTTVAVSS
VL: QSTLTQPASASGSPGQSITISCTGTSNDIGSYTYVSWYQHHPGKAPKLMIYDVNERPSGISHRFSGSKSGNTASLTISGLQPEDEADYYCNSYTINNTLKFGGGTRLTVL
B4: F6-27 (antibody, V domains shown)
VH: QEQLMESGGDVVRPGTSLTLSCKASGFAFRSHALHWVRQAPGKGLEWVSVISYDGGHTNSADSLEGRFTVSRDNSKNILYLQMNSLRTEDTAVYFCARSEGSYRSWPGYFYYMDVWGNGTTVTVSS
VL: QSALTQPASVSGSPGQSITISCIGTSSDVGGYYYVSWYQQHPGRAPKLIIFDVTDRPSGVSSRFSGSQSGNTASLTISGLQPEDEADYYCNSYSSSTIPYVFGSGTKVTVL
B5: F6-88 (antibody, V domains shown)
VH: QVQLVQSGAEVKKPGASVRVSCGASGNSFTRHGFSWVRQAPGQGLEWIGLISAHKSNTIYAQKFQGRVTVTTDTSTSTAYMELRSLRSDDTAVYYCVRDVTVVTDVGSGYDFPMDVWGQGTTVTVSS
VL: QSVLTQSPSASGTPGQRVTISCSGSNSNIGGDYVHWYQQVPGTAPRLLIYNTNQRPSGVPDRFSGSKSGTSGSLAISGLRSEDEADYYCATWDDSLNGWVFGGGTKLTVL
B6: F6-133 (antibody, V domains shown)
VH: EVQVVESGGGLVQPGGSLRLSCAASSFSVTGSYMTWVRQAPGKGLESVSLIYSTGSTYYADSVKGRFVISRDDSKNILFLQMNNLRVEDTGVYFCARLGPAGGSWSWEFYGLDVWGQGTTVTVFS
VL: CVQMTQSPSFLSASVGDRVTISCRASQGTTSYLAWYQQKPGKAPKLLIYGVSTLQTGVPSRFSGSGSGTDFTLTISNLQPEDFATYYCQQVNIFPYTFGPGTKVEIK
B7: F6-61 (antibody, V domains shown)
VH: QVTLRQSGPALVKPTQTLTLTCTFSGFSLSTRGMCVNWIRQPPGKALEWLARIDWDDDKYYTTSLKTRLTISKDTAKNHVVLSMTNMDPVDTATYYCARIRCYDYVWGDDEVFDIWGQGTMVSVSS
VL: QSVLTQPPSASGTPGQSVTISCSGSTSNIGSNNVNWYQQLPGAAPKLVIHTNDQRPSRVPDRFSGSTSGTSASLAISGLQSEDEADYYCAAWDDSLNGLLFGGGTKLTVL
B8: F6-124 (antibody, V domains shown)
VH: QVQLVQSGTEVKKPGASVKISCKASGYTFTGNAINWVRQAPGQGLEWLGWISVNNGNTKYVQKFQGRVTMTTDTSTSTAYMELRSLGSDDTAVYYCAREVVNYGSGSLNFDSWGQGTLVTVSS
VL: SYELTQPPSVSVSPGQTVSISCSGDKLGNDYVSWYQQKPGQSPVLVIYEDSKRPSGIPERFSGSNSGNTATLTISGTQAMDESDYYCQAWDGSTVIFGGGTKLTVL
B9: F6-141 (antibody, V domains shown)
VH: QVQLAQSGAEVRRPGTSVKVSCRSSAYDFIDDSIHWVRQAPGQGLEWMGRIDPSGDTTTYAPQFQVRITLTRDTSTSTASMELNRLTSQDTAMYYCVAYERATTLAGVGASDVWGQGTWVTVSS
VL: DIVMTQSPLSLSVTPGEPASISCRSSQSLLYRDGYNYLDWYLQKPGQSPQLLLYFASYRASGVPDRFSGSGSGTDFTLTITRVEPEDVGIYYCMQSLQTPFTFGPGTKLDFK
B10: F6-208 (antibody, V domains shown)
VH: QVQLEESGGGVVQPGTSLRLSCSSSGVTRNTYAVHWVRQVPGKGLEWLAATSYDGTSKYYPENGHGRVSISKEYSTNMVYLEIYNLRPEDTAVYFCAKGPQGIYSYIGYFYYMDVWGKGTTVTVSS
VL: QSALTQPASVSGSPGQSITLSCTGSRDDVGDYDYVSWYQHHPGKAPRLIIYDVTSRPSGVSPRFSGSKSGNTASLTISGLQADDEADYYCNSYTSSNSVVFGGGTKVTVL
B11: F6-70 (antibody, V domains shown)
VH: QVQLVESGGGVVQPGRSLRLSCAASGFTFKNFAMHWVRQAPGKGLEWVAAVSYDGTSKYQADSVKGRFTISRDNSKNTLYLQMNSLRAEDTAVYYCARVESSGSGHYSYLGYFYCMDVWGKGTTVTVSS
VL: QSALTQPASVSASPGQSITISCTGTRNDVGGYEYVSWYQQHPDKAPKLMIFDVSNRPSGVSNRFSGSKSGNTASLTISGLQAEDEADYYCSSYTINNTLVFGGGTKVTVL
B12: F6-207 (antibody, V domains shown)
VH: QITLKESGPTLLKPTQTLTLTCTFSGFSLTTTGVAVGWVRQPPGKALEWLALIYWDDDKRYSPSLKSRVTITKDTSKNQVLLAMTDMDPVDTATYYCAHFDYGDPEVVALFEYSYYMDVWGKGITVTVSS
VL: QSVLTQPPSVSGTPGQRVTISCSGSSSNIGSNYVYWYQHLPGTAPKLLIYTNNRRPSGVPDRFSGSKSGTSASLAVSGLRSEDEADYFCAVWDDSVGGHWVFGGGTKLTVL
B13: F6-227 (antibody, V domains shown)
VH: QVQLQQSGPGLVKPSETLSLACSVSGGSMSDFYWSWIRQSPGTGLEWIGYVHHSGKVNYNPSLKARVTMSLDTSKYLLSLNLASMTAADSAVYYCAATSAFVDSSSYSPPYFDFWGQGTLITVSS
VL: DIQLTQSPSSLSASVGDRVTITCQASHDITNYLNWYQQTPGKAPRLLIYVATNLETGVPSRFSGSGSGTHFTLTISSLQPEDSATYYCQQYDNLPITFGGGTRVEIR
B14: F6-215 (antibody, V domains shown)
VH: QEQSVQSGPEVKKPGASVKVSCRASEFTFSTDFIHWVRQAPGQGLEWMGRITPSDGTTTYAPKFQGRVAVTRDPSTKNVYIQLTRLKSEDTAVYYCVAYDRATTSAGAGATDIWGQGTLVTVSS
VL: DIVMTQSPLSLPVTPGEPASISCRSSQSLLHGDGYNYLDWYLQRPGRSPQLLIYLGSHRASGVPDRFSGSGSGTDFTLRISRVEAEDVGIYYCMQGLQTPFTFGPGTKVDIK
B15: F6-213 (antibody, V domains shown)
VH: QEQLVQSGAEVKRPGTSVKVSCKASGYAFTDYSIHWVRQAPGVGLEWMGKIYPGDGHALYAQNFQGRVTLTRDTSTASVYMELRSLRSQDTAVYYCVAYERATTLAGAGASDIWGQGTMVTVSS
VL: B14 VL with H31Q, G32S, L38M, R44K, E84K, G96S, T99S
B16: F6-172 (antibody, V domains shown)
VH: EEQLVESGGGLVQPGGSLKLSCAASGFILSDSTVHWVRQASGRGLEWVGRIANGYATSYAASVKGRFTISTDDSGNTAYLEMNSLKTEDTAVYYCTSRSVVVTDVGAGRDDYWGQGTLVTVSS
VL: DIVMTQSPLSLPVTPGEPASISCRSSQSLLHRNGYNYLDWYLQKPGQSPQLLIWLGSNRASGVPDRFSGSGSGTDFTLTISRVEAEDVGVYYCMQDLQTPPTFGGGTKVEIM
B17: F6-210 (antibody, V domains shown)
VH: QERLAQSGTEVKKPGASVKVSCRALGYTFSDYSIHWVRQAPRQGLEWMGKINTSGGTTTYAQKFQARVTLTSDTSTSTASMELSSLKIEDTAVYYCVAYERATTLAGAGASDIWGQGTLVTVSS
VL: DIVMTQSPLSLPVTPGEPASISCRSSQSLLHSDGYNYLDWYLQKPGQSPHLLIYLGSNRASGVPDRFSGSGSGTDFTLKITRVEPEDVGVYYCMQSLQTPFTFGPGTKVDVK
B18: F6-132 (antibody, V domains shown)
VH: QEQSVQSGAEVKKPGASVKVSCRASEFTFSTDFIHWVRQAPGQGLEWMGRITPSDGTTTYAQKFQGRVTMTRDPSTNTVYIELRRLKSEDTAVYYCVAYDRVTTSAGTGASDIWGQGTMVTVSS
VL: B14 VL with R44K
B19: F6-153 (antibody, V domains shown)
VH: QVQLQQWGAGLLRPSETLSLTCAVSGVSLSGDYLTWIRQTPGKGLEWIGEINHSGSTNYNPSLKSRVTISVETSKNHFSLKMRSVTAADSALYYCARGWEYCHGTTCYSKAFDIWGQGTLVTVSS
VL: DIQMTQSPSSLSASVGDRVTITCQASQDISNYLIWYQQKPGRAPKLLIFDASKLEKGVPPRFSGSGSGTYFTFTISSLQPEDFATYYCQQFHNLPVTFGGGTKLETK
B20: F6-115 (antibody, V domains shown)
VH: QLQLHQRGAGLLKPSETLSLTCDVYGGSVSDDEWTWIRQSPGKGLEWIGQIDRTGSSNYNPSLRSRVTISPDTSNNQFSMSLTSVTAADTALYFCARGGLVVTDVGRGWDAFDVWGQGTMVTVSS
VL: DIQMTQSPSSVSASVGDRITITCRASQHINNWLAWYQQKPGEAPKLLIYAASTLQRGVPSRFSGSGSGTRFTLTITSLQPEDFASYFCQQGDSFPLTFGGGTKVEIK

Each binder was assayed against RSV A2 pre-F (RSV A2) (assay: ELISA).
Binder B1 has an EC50 of 0.0161 µg/mL. With B2 the EC50 was 0.00998 µg/mL. Work on B3 yielded an EC50 of 0.00712 µg/mL. B4 showed an EC50 of 0.00987 µg/mL. B5 showed an EC50 of 0.0169 µg/mL.

What follows are binders tested against RSV A2 pre-F (RSV A2) (assay: BLI).
For B1, the Kd was 0.783 nM. Work on B2 yielded a Kd of 0.96 nM. For B3, the Kd was 1.38 nM. Work on B4 yielded a Kd of 0.671 nM. B5 gave a Kd of 0.86 nM.

Target: RSV A2 pre-F (RSV A2)
Assay: ELISA
Remark: another data set of the same source
With B6 the EC50 was 0.0494 µg/mL. B7 was tested, and the EC50 was 0.0613 µg/mL. B8 showed an EC50 of 0.0147 µg/mL. B9 showed an EC50 of 0.0166 µg/mL. B10 was tested, and the EC50 was 0.0198 µg/mL. Work on B11 yielded an EC50 of 0.0585 µg/mL. B12 showed an EC50 of 0.0354 µg/mL. Work on B13 yielded an EC50 of 0.0226 µg/mL. In the case of B14, the EC50 is reported as 0.0289 µg/mL. B15 showed an EC50 of 0.0298 µg/mL. B16 was tested, and the EC50 was 0.0183 µg/mL. Binder B17 has an EC50 of 0.0281 µg/mL. Binder B18 has an EC50 of 0.0167 µg/mL. B19 showed an EC50 of 0.018 µg/mL. In the case of B20, the EC50 is reported as 0.0117 µg/mL.

Target: RSV A2 pre-F (RSV A2)
Assay: BLI
Remark: another data set of the same source
For B6, the Kd was 0.0669 nM. With B7 the Kd was 3.25 nM. For B8, the Kd was < 0.001 nM. With B9 the Kd was < 0.001 nM. In the case of B10, the Kd is reported as 0.0533 nM. Work on B11 yielded a Kd of 2.11 nM. B12 was tested, and the Kd was 0.291 nM. Work on B13 yielded a Kd of 0.169 nM. Binder B14 has a Kd of 0.815 nM. B15 showed a Kd of 1.29 nM. With B16 the Kd was < 0.001 nM. B17 was tested, and the Kd was 0.106 nM. B18 was tested, and the Kd was < 0.001 nM. With B19 the Kd was < 0.001 nM. B20 was tested, and the Kd was < 0.001 nM.

Source: patent US20260327294 (published 2026)
